Each block holds one molecule with its values, some of them ahead of it.
Key:
[1] = molecular target: monoclonal antibody (mAb) to detect Aβ42-derived peptide species with free N-terminus (generated in Example 1); experiment: competition ELISA: soluble peptide against plate-bound DAEFRH-C-BSA for the biotinylated mAb, FIG. 9
[2] = molecular target: monoclonal antibody (mAb) to detect Aβ42-derived peptide species with free N-terminus (generated in Example 1); experiment: competition ELISA: soluble peptide against plate-bound DAEFRH-C-BSA for the biotinylated mAb, FIG. 4
[3] = molecular target: monoclonal antibody (mAb) to detect Aβ42-derived peptide species with free N-terminus (generated in Example 1); experiment: competition ELISA: soluble peptide against plate-bound DAEFRH-C-BSA for the biotinylated mAb, FIG. 7
[4] = molecular target: monoclonal antibody (mAb) to detect Aβ42-derived peptide species with free N-terminus (generated in Example 1); experiment: competition ELISA: soluble peptide against plate-bound DAEFRH-C-BSA for the biotinylated mAb, FIG. 5
[5] = molecular target: monoclonal antibody (mAb) to detect Aβ42-derived peptide species with free N-terminus (generated in Example 1); experiment: competition ELISA: soluble peptide against plate-bound DAEFRH-C-BSA for the biotinylated mAb, FIG. 8
[6] = molecular target: monoclonal antibody (mAb) to detect Aβ42-derived peptide species with free N-terminus (generated in Example 1); experiment: competition ELISA: soluble peptide against plate-bound DAEFRH-C-BSA for the biotinylated mAb, FIG. 2
[7] = molecular target: monoclonal antibody (mAb) to detect Aβ42-derived peptide species with free N-terminus (generated in Example 1); experiment: competition ELISA: soluble peptide against plate-bound DAEFRH-C-BSA for the biotinylated mAb, FIG. 3

Molecule: Peptide 4062 DKE(Nle)R
IC50 [1]: > 0.5 µg/mL

Molecule: Peptide 4063 DKE(Nva)R
IC50 [1]: > 0.5 µg/mL

Molecule: Peptide 4064 DKE(Cha)R
IC50 [1]: > 0.5 µg/mL

Molecule: SWEFRTC [Peptide 4002 SWEFRT]
IC50 [2]: < 0.4 µg/mL

Molecule: GKEFRTC [Peptide 4035 GKEFRT]
IC50 [5]: < 0.5 µg/mL

Molecule: EYEFRGC [Peptide 1239 EYEFRG]
IC50 [4]: > 0.5 µg/mL

Molecule: SVEFRYHC [Peptide 4021 SVEFRYH]
IC50 [3]: < 0.5 µg/mL

Molecule: DWELRIC [Peptide 3002 DWELRI]
IC50 [6]: > 0.5 µg/mL

Molecule: SLEFRFC [Peptide 4033 SLEFRF]
IC50 [5]: < 0.5 µg/mL

Molecule: ELEFRGC [Peptide 3008 ELEFRG]
IC50 [7]: < 5 µg/mL

Molecule: DKELRC [Peptide 1238 DKELR]
IC50 [4]: < 0.5 µg/mL

Molecule: DRELKIC [Peptide 1237 DRELKI]
IC50 [4]: > 5 µg/mL

Molecule: YAEFRGC [Peptide 3005 YAEFRG]
IC50 [6]: > 0.5 µg/mL

Molecule: DWEFRDC [Peptide 4025 DWEFRD]
IC50 [3]: < 0.5 µg/mL

Molecule: SFEFRGC [Peptide 3009 SFEFRG]
IC50 [7]: < 5 µg/mL

Further lines, results first:

IC50 [3]: < 0.5 µg/mL
Molecule: SQEFRTPC [Peptide 4023 SQEFRTP]

IC50 [4]: < 0.5 µg/mL
Molecule: DRELRIC [Peptide 1235 DRELRI]

IC50 [4]: > 5 µg/mL
Molecule: DKELKIC [Peptide 1236 DKELKI]

IC50 [3]: > 0.5 µg/mL
Molecule: SWELRQAC [Peptide 4020 SWELRQA]

IC50 [5]: > 0.5 µg/mL
Molecule: AYEFRHC [Peptide 4036 AYEFRH]

IC50 [5]: < 0.5 µg/mL
Molecule: DAELRYC [Peptide 4031 DAELRY]

IC50 [4]: < 0.5 µg/mL
Molecule: DWEFRDAC [Peptide 1241 DWEFRDA]

IC50 [3]: < 0.5 µg/mL
Molecule: SYEFRHHC [Peptide 4022 SYEFRHH]

IC50 [5]: < 0.5 µg/mL
Molecule: DWELRQC [Peptide 4032 DWELRQ]

IC50 [6]: < 0.5 µg/mL
Molecule: DYEFRGC [Peptide 3007 DYEFRG]

IC50 [5]: < 0.5 µg/mL
Molecule: GPEFRWC [Peptide 4034 GPEFRW]

IC50 [6]: < 0.5 µg/mL
Molecule: DKELRIC [Peptide 3001 DKELRI]

IC50 [6]: < 0.5 µg/mL
Molecule: EAEFRGC [Peptide 3006 EAEFRG]

IC50 [3]: < 0.5 µg/mL
Molecule: SSEFRVSC [Peptide 4024 SSEFRVS]
